Results as given in paper PMC12567329, “Chloroplast Hibernation-Promoting Factor PSRP1 Prevents Ribosome Degradation Under Darkness Independently of 100S Dimer Formation” (Plants, 2025).

Tests used:
Test in all cases: SEC-MALS; Superdex 200 5/150 GL; 100 mM Tris-HCl pH 8.0, 150 mM NaCl, 1 mM EDTA, 10% (v/v) glycerol; 0.15 mL/min; 90 µL of each sample at 1.6 mg/mL injected
[1] = target: Plastid-specific ribosomal protein 1b (PSRP1b) of Physcomitrium patens, mature form (Physcomitrium patens)
[2] = target: Plastid-specific ribosomal protein 1a (PSRP1a) of Physcomitrium patens, mature form (Physcomitrium patens)
[3] = target: the molecule itself

## Plastid-specific ribosomal protein 1b (PSRP1b) of Physcomitrium patens, mature form (natural protein)
[1]
  stoichiometry N: 2

## Plastid-specific ribosomal protein 1a (PSRP1a) of Physcomitrium patens, mature form (natural protein)
[2]
  stoichiometry N: 2

B1: Bacillus subtilis long-form hibernation-promoting factor (BsHPF) (natural protein, UniProt P28368 1-189, looked up)
chain: MNYNIRGENIEVTPALKDHVERKIGKLERYFDHSVDADVNVNLKFYNDKESKVEVTIPMTDLALRSEVHNEDMYNAIDLATNKLERQIRKHKTKVNRKFREQGSPKYLLANGLGSDTDIAVQDDIEEEESLDIVRQKRFNLKPMDSEEAILQMNMLGHNFFVFTNAETNLTNVVYRRNDGKYGLIEPTE
notes: Long-form hibernation-promoting factor (LHPF) of Bacillus subtilis, amplified from genomic DNA; predicted mass of the construct 24.2 kDa; Dimeric control protein of the SEC-MALS experiment; also called Bacillus subtilis LHPF
[3]
  stoichiometry N: 2
